From patent publication US20070059320A1

Biological target: NADH dehydrogenase subunit 2 (ND2), native protein in brain lysates, PSD preparations, hippocampal neurons and tissues (rat) (UniProt P11662)
Test: cell-based or functional assay

Sequence of NADH dehydrogenase subunit 2 (ND2), native protein in brain lysates, PSD preparations, hippocampal neurons and tissues (rat) (P11662 whole entry): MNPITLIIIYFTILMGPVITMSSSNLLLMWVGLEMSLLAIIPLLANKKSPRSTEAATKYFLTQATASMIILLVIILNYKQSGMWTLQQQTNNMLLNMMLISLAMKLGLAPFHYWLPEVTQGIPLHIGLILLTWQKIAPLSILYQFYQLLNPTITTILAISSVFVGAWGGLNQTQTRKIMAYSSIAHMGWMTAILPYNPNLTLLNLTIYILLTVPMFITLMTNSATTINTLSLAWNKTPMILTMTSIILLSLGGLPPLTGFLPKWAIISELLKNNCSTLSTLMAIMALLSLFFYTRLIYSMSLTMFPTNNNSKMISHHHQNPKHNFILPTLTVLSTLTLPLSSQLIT

Substance “Src40-58 peptide (amino acid residues 40-58 of SEQ ID NO:4)” has an NMDAR component of mEPSCs (cultured hippocampal neurons, whole-cell recording) of 56%.
